Data: patent publication CN111153994A (WUHAN ABEX BIOTECHNOLOGY CO LTD, dated 2020)

Molecular target: T1, 人TNFα蛋白 (人肿瘤坏死因子) (human, UniProt P01375 77-233)
T1 construct: also called human TNFα
Experiment: ELISA: human TNFα coated on the plate, serially diluted FC9 as primary antibody, HRP goat anti-human IgG-Fc as secondary

T1 sequence (P01375 77-233 limits assumed): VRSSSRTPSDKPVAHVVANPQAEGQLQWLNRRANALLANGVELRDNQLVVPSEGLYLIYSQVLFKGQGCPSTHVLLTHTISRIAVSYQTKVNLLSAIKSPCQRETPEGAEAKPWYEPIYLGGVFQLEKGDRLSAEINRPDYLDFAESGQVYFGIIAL

- EC50: ~0.4 nM
B1: FC9抗体 (针对人肿瘤坏死因子的人源单克隆抗体) (antibody, human IgG1, kappa, V domains shown)
VH: QLVQSGAEVKKPGASVKVSCKASGYTFTSYYMHWVRQAPGQGLEWMGIINPSGGSTSYAQKFQGRVTMTRDTSTSTVYMELSSLRSEDTAVYYCASFDYWGQGTLVTVSS
VL: EIVLTQSPGTLSLSPGERATLSCRTSQSVSSSYLAWYQQKPGQAPRLLIYGASSRATGIPDRFSGSGSGTDFTLTISRLEPEDFAVYFCQQFGTSSITFGQGTRLEIKR
notes: Point mutant of FC0 in an aggregation-prone region of the heavy chain; Expressed in 293F cells from pVitro2-neo-mcs, purified on Protein A and detected with anti-human IgG-Fc; also called FC9 antibody
